For one series, the target named is thrombin (Homo sapiens, UniProt P00734). The note with it: cited from earlier work.
Series [1] concerns the target T1, Ribonuclease S (S-protein) (Bos taurus, UniProt P61823).
T1 construct: incubated with the rest of the Ribonuclease S complex, the S-protein; purchased Novagen, Madison, Wis
T1 sequence (P61823 47-150 limits assumed): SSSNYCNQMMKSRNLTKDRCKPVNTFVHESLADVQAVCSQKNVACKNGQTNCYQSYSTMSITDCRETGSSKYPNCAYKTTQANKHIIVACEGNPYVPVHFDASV
The experiment in a line: RNase S activity assay: increase in acid soluble nucleotides (A280) during hydrolysis of poly-(C), with or without 1 GHz RFMF. It counts as biochemical.

Series [2] has as its target T1, Ribonuclease S (S-protein). Described as above. The settings on record: for RNase S activity (digested polyC, A280) with the RFMF on compared with RFMF off: 37° C., as a function of reaction time. It counts as biochemical. Here is the method: In this example, ribonuclease S was associated with a gold nanocrystal modulator (the system described in Example 1). The activity of the enzyme was controlled by induction heating of the modulator using an alternating magnetic field. The frequency of the alternating magnetic field was 1 GHz in the radiofrequency range. Accordingly, the alternating magnetic field is referred to as a radiofrequency magnetic field (RFMF). The modulator S-peptide and S-protein complex was incubated with the substrate, polyC, in solution at 37° C. The tube containing the sample was placed in a coil inside which the RFMF was generated and switched on. Activity was monitored by measuring the amount of digested polyC in the solution. PolyC was purified from the rest of the sample by precipitation with trichloroacetic acid (TCA). The activity was the amount of digested polyC, which is determined by the optical absorption of the sample at 280 nm.
The assay for measuring RNase activity was based on the measurement of increase in acid soluble nucleotides during the hydrolysis of poly-(C) (FIG. 14(a)). All concentrations were expressed as the final concentrations in the assay system. The S-protein (Novagen, Madison, Wis.) with various concentrations of S18 peptide was pre-incubated in 20 mM Na-phosphate buffer, pH 6.0; 100 mM NaCl at 37° C. for 10 minutes followed by initiating the reaction by the addition of the substrate, 0.39 mM poly [C] (sigma). At different time intervals, aliquots were quenched with 5% trichloroacetic acid (TCA). The reaction mixture was kept on ice for 5 minutes and subsequently spun at 13,000 rpm (Biofuge A) for 10 min.
Alternating magnetic fields are generated by applying an electric current to a copper coil that coils around a quartz cuvette. Currents with frequencies in the radio frequency range are obtained by using a RF generator with a current amplifier. The RF is pulsed at 15 second intervals. The RF power levels are varied from −8 dBm to −0.1 dBm. The MF frequency used is 1 GHz.

Data on eight compounds can be found in patent US6953656B2, “Direct, externally imposed control of polypeptides” (Massachusetts Institute of Technology, priority 2000, dated 2005).

Entries after “also recorded” stand apart in the source; their conditions may differ. Where no end group is shown, it is not given here.

On to “CGAGAG-VRPEHPAETEYDSLYPEDDL (CGAGAGVRPEHPAETEYDSLYPEDDL; thrombin inhibitory peptide: fibrin 408-27) [408-427, fibrin gamma chain fragment peptide]”, for which the “Inhibition of thrombin activity” value with thrombin is on record as “strongly inhibit”.

Consider “CGAGAG-NGDFEEIPEEYL (CGAGAGNGDFEEIPEEYL; thrombin inhibitory peptide: hirudin 53-64) [hirugen53-64, fragment of Hirudin]”, for which, in the series with thrombin, the Affinity for thrombin result is recorded as “very high affinity”.

Turning to “Au-S18: S18 peptide covalently linked via N-terminal cysteine to a single 1.4 nm gold nanocrystal; tested complexed with S-protein (CGGKETAAAKFERQHMDS; also: linked via N-terminal cysteine to a 1.4 nm gold nanocrystal)”, the “Enzymatic activity when combined with S-protein, no RF (RF OFF state)” value (shortened to “Enzymatic activity … no RF (RF OFF state)”) in series [1] (listed as gold nanoparticle linked S-peptide) was “indistinguishable from the S-peptide without the nanoparticles”; in series [2], “active”. For the same compound, the “RF power at the 50% activity” value in series [2] (1 GHz RFMF) is on record as −4 dBm. Moreover, the “Effect of higher RF levels on RNase S activity” value in series [2] (RF −4, −3, −2 to −1 dBm, 1 GHz) is “drastic effect”. Moreover, in series [2] (RF −8 to −5 dBm, 1 GHz), the “Effect of low RF levels on RNase S activity” value is on record as “no significant effect”. Further, the “Activity once recovered after RF” value in series [2] (after recovery time) was “fully active”. Besides, in series [2] (modulator linked to S-peptide, RFMF 1 GHz, entire concentration range), the “RNase S activity with the RFMF on compared with RFMF off as a function of modulator-S-peptide concentration” value was “significantly less than with the RFMF off”. For the same compound, the “RNase S activity (digested polyC, A280) with the RFMF on compared with RFMF off” value in series [2] (modulator linked to S-peptide, RFMF 1 GHz, listed as Au-S18/S peptide) was “reduced”; in series [2] (modulator linked to S-peptide, RFMF 1 GHz, listed as gold nanoparticle linked S-peptide) it was “transiently halting the enzyme activity”; in series [2] (modulator linked to S-peptide, RFMF 1 GHz, listed as modulator S-peptide-S-protein complex) it was “less than with the RFMF off”.

With n-CGGKETAAAKFERQHMDS-c (S18 peptide), the “Enzymatic activity … no RF (RF OFF state)” value in series [2] is “restored the RNase S enzyme activity; also recorded: indistinguishable from that of the S15 native peptide”.

In the case of Hirudin, on thrombin, the Affinity for thrombin entry is recorded as “extremely high affinity” and the “Inhibition of thrombin activity” value is reported as “inhibits the enzymatic cleavage of fibrinogen by thrombin”.

With “CGAGAG-AETEYDSLYPEDDL (CGAGAGAETEYDSLYPEDDL; thrombin inhibitory peptide: fibrin 414-27) [414-427, fibrin gamma chain fragment peptide]”, in the series with thrombin, the “Inhibition of thrombin activity” value is reported as “strongly inhibit”.

Consider “S15: residues 1 to 15 of the wild type S-peptide of ribonuclease S (KETAAAKFERQHMDS) [reference compound]”, for which the “Enzymatic activity … no RF (RF OFF state)” value in series [1] (listed as S-peptide with only the N-terminal 15 residues) is given as “completely restored the enzymatic activity”; in series [2] it was “full enzymatic activity”.

With `NC(N)=NCCC[C@H](NC(=O)[C@@H]1CCCN1C(=O)[C@H](N)Cc1ccccc1)C(=O)CCl` [PPACK, D-Phe-L-Pro-L-Arg-chloromenthy ketone], the “Inhibition of thrombin activity” value at thrombin is listed as “inhibitory effect”.
